Assay results taken from FireProtDB (doi:10.1021/bi012084+).

Details: Geobacillus stearothermophilus; pH 7.5; Thermal; DSC; KH2PO4/KOH 100 mM; reversible: no; whole UniProt chain shown

B1: Glyceraldehyde-3-phosphate dehydrogenase wild type, P00362 (protein)
chain: MAVKVGINGFGRIGRNVFRAALKNPDIEVVAVNDLTDANTLAHLLKYDSVHGRLDAEVSVNGNNLVVNGKEIIVKAERDPENLAWGEIGVDIVVESTGRFTKREDAAKHLEAGAKKVIISAPAKNEDITIVMGVNQDKYDPKAHHVISNASCTTNCLAPFAKVLHEQFGIVRGMMTTVHSYTNDQRILDLPHKDLRRARAAAESIIPTTTGAAKAVALVLPELKGKLNGMAMRVPTPNVSVVDLVAELEKEVTVEEVNAALKAAAEGELKGILAYSEEPLVSRDYNGSTVSSTIDALSTMVIDGKMVKVVSWYDNETGYSHRVVDLAAYIASKGL
Q: For B1, which “unfolding enthalpy (calorimetric)” value is on record?
A: 408 kcal/mol
